Laboratory results taken from PMC7360973 (2020).
Ends that are not written are not given here.

Target: Human Hsc70 (HSPA8) (human, UniProt P11142 1-646)
Test: FP

Chain of Human Hsc70 (HSPA8) (P11142 whole entry): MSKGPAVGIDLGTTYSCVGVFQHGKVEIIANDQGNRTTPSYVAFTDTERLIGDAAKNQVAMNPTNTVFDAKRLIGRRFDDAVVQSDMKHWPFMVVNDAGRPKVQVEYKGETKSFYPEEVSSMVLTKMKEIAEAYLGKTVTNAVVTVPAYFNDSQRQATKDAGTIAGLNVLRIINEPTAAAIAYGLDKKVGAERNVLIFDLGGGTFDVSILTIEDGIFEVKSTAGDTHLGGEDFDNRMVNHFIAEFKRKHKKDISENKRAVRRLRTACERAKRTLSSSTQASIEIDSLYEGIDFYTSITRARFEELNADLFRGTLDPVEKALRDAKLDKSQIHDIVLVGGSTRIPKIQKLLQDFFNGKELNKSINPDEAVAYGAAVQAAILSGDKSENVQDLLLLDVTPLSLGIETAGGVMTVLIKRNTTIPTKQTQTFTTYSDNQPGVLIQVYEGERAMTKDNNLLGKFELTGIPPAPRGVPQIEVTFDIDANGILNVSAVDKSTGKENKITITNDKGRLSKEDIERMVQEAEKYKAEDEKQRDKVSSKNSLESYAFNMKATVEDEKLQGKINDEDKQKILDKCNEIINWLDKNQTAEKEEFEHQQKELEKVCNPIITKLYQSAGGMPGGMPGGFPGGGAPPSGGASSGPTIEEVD

Row | Kd | Binder
1 | > 60 µM | NMYGFRKVVHIEQC(fluorescein‑5‑maleimide) [Hsf1 peptide N74‐Q86‐C]
2 | > 60 µM | GVKRKSPSMSNC(fluorescein‑5‑maleimide) [Hsf1 peptide G204‐N214‐C_SSS]
3 | > 60 µM | PKYSRQFSLEHVHC(fluorescein‑5‑maleimide) [Hsf1 peptide P223‐H235‐C]
4 | > 60 µM | NRSSGSKRKC(fluorescein‑5‑maleimide) [Hsf1 peptide N200‐K208‐C_SSS]
